Key:
[1] = test system: wild-type and variant SNAP-GIPR; experiment: Surface SNAP-GIPR expression (SNAP-tag labelling) in INS-1 cells; format: cell-based, human; conditions: Fig 4G; Mean
Procedure, shortened: (§1)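 Surface GIPR is quantified from wide-field images after labelling intact transfected cells with a membrane-impermeant SNAP probe at 500 nM for 10 min at room temperature. Specific signal, corrected for nontransfected cells, is normalized to the experiment-wide average or to wild-type.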

[2] = test system: wild-type and variant SNAP-GIPR in wild-type mouse islets; experiment: Insulin secretion from wild-type mouse islets transduced with GIPR adenoviruses; format: cell-based; conditions: Fig 6F
Description: Isolated islets used for insulin secretion assays were treated in 1.5-ml microcentrifuge tubes. Eight-ten islets were used per well with two-three technical replicates per condition. […] At the end of the treatment, supernatants containing the secreted insulin or glucagon were collected, centrifuged at 1000g for 5 min, and transferred to fresh tubes. […] The lysates were sonicated 3× for 10 s in a water bath and centrifuged at 10,000g for 10 min, and the supernatants were collected. […] GraphPad Prism 9.0 was used for the generation of the standard curve and sample concentration extrapolation. The total insulin or glucagon content was calculated by adding the secreted insulin to the insulin content of the lysates, and secretion was reported as the percentage release of total. The percent secretion of islets treated with agonist was normalized to that of islets treated with vehicle and reported as a fold change.

[3] = test system: wild-type and variant SNAP-GIPR in Gipr-/- mouse islets; experiment: Surface SNAP-GIPR expression in pancreatic islets; format: cell-based, human; conditions: Fig 6B
Description: Islets were purified from Gipr^−/− mice as described in the “Islet isolation and culture” section. Islets were transduced with adenoviral wild-type or variant SNAP-tagged GIPR constructs (VectorBuilder) per the manufacturer’s instructions. All variants were tested in parallel on each occasion to control for transduction efficiency. Twenty-four hours posttransduction, whole, intact islets were labeled with SNAP-Surface Alexa Fluor 647 for 15 min at 37°C. Following labeling, the islets were placed in a drop of PBS in the center of a glass-bottom MatTek dish and imaged on a Zeiss LSM 780 inverted confocal microscope fitted with a 63X/1.4 NA oil immersion objective. Receptor surface levels were quantified in Fiji using a macro using full width at half maximum (FWHM) designed by the Facility for Imaging and Light Microscopy (FILM) at Imperial College London and expressed relative to wild-type GIPR. In additional experiments, islets transduced as above and labeled with SNAP-Surface-647 were fixed in 4% paraformaldehyde, permeabilized in 0.5% (v/v) Triton X-100 in PBS (15 min), washed once with PBS and incubated in blocking buffer (PBS and 1% BSA) for 1 hour, and incubated overnight at 4°C in primary antibodies against insulin (1:50; Dako IR002, Agilent Technologies) and glucagon (1:500; G2654, Sigma-Aldrich) in blocking buffer.

[4] = test system: wild-type and variant SNAP-GIPR; experiment: Single-concentration GIP cAMP response by HTRF in INS-1 cells; format: cell-based, human; conditions: Fig S3E, mean
Description: All variants were tested in parallel on each occasion to control for transfection efficiency differences between experiments.

[5] = test system: wild-type and variant SNAP-GIPR; experiment: Surface SNAP-GIPR expression (SNAP-tag labelling) in AD293 cells; format: cell-based, human; conditions: for AD293 Surface: Fig S3E, mean; for Surface SNAP-GIPR expression: sheet Fig 1C;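 for all read-outs here: scaled to the experimental average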
Procedure, shortened: as §1

[6] = test system: wild-type and variant SNAP-GIPR in Gipr-/- mouse islets; experiment: Glucagon secretion from Gipr-/- mouse islets transduced with GIPR adenoviruses; format: cell-based; conditions: Fig S6C, Gipr-/- mouse islets
Description: Isolated islets used for insulin secretion assays were treated in 1.5-ml microcentrifuge tubes. Eight-ten islets were used per well with two-three technical replicates per condition. […] At the end of the treatment, supernatants containing the secreted insulin or glucagon were collected, centrifuged at 1000g for 5 min, and transferred to fresh tubes. […] The lysates were sonicated 3× for 10 s in a water bath and centrifuged at 10,000g for 10 min, and the supernatants were collected. The samples were stored at −20°C until the insulin or glucagon concentrations were determined using an Insulin Ultra-Sensitive HTRF Assay kit (62IN2PEG, Revvity) or an HTRF Glucagon Detection Kit (62CGLPEG, Revvity) respectively, according to the manufacturer’s instructions. GraphPad Prism 9.0 was used for the generation of the standard curve and sample concentration extrapolation. The total insulin or glucagon content was calculated by adding the secreted insulin to the insulin content of the lysates, and secretion was reported as the percentage release of total. The percent secretion of islets treated with agonist was normalized to that of islets treated with vehicle and reported as a fold change.

B1: R190Q (protein)
chain: RAETGSKGQTAGELYQRWERYRRECQETLAAAEPPSGLACNGSFDMYVCWDYAAPNATARASCPWYLPWHHHVAAGFVLRQCGSDGQWGLWRDHTQCENPEKNEAFLDQRLILERLQVMYTVGYSLSLATLLLALLILSLFRRLHCTRNYIHINLFTSFMLRAAAILSQDRLLPRPGPYLGDQALALWNQALAACRTAQIVTQYCVGANYTWLLVEGVYLHSLLVLVGGSEEGHFRYYLLLGWGAPALFVIPWVIVRYLYENTQCWERNEVKAIWWIIRTPILMTILINFLIFIRILGILLSKLRTRQMRCRDYRLRLARSTLTLVPLLGVHEVVFAPVTEEQARGALRFAKLGFEIFLSSFQGFLVSVLYCFINKEVQSEIRRGWHHCRLRRSLGEEQRQLPERAFRALPSGSGPGEVPTSRGLSSGTLPGPGNEASRELESYC
modifications: left off: SNAP-tag, end not stated, kept
Question: Which Surface expression [1] does the source give for B1 here?
Answer: The Surface expression was 0.5789.

Question: What about the “Insulin secretion, ratio G11 + GIP / G11” value ([2]; replicate 1) of the same molecule?
Answer: The value was 1.037.

Question: And the “Insulin secretion, ratio G11 + GIP / G11” value ([2]; replicate 2)?
Answer: The value was 0.9818.

Question: What about the “Insulin secretion, ratio G11 + GIP / G11” value ([2]; replicate 3) of the same molecule?
Answer: Its value is 1.417.

Question: And the “Insulin secretion, ratio G11 + GIP / G11” value ([2]; replicate 4)?
Answer: The value was 0.8398.

Question: What about the “Insulin secretion, ratio G11 + GIP / G11” value ([2]; replicate 5) of the same molecule?
Answer: The value was 1.788.

Question: What about the “Surface SNAP-GIPR expression in pancreatic islets” value ([3]; replicate 1) of the same molecule?
Answer: The value was 0.6777.

Question: And the “Surface SNAP-GIPR expression in pancreatic islets” value ([3]; replicate 2)?
Answer: Its value is 0.189.

Question: And the “Surface SNAP-GIPR expression in pancreatic islets” value ([3]; replicate 3)?
Answer: Its value is 0.9549.

Question: And the “Surface SNAP-GIPR expression in pancreatic islets” value ([3]; replicate 4)?
Answer: Its value is -0.2055.

Question: What about the “Surface SNAP-GIPR expression in pancreatic islets” value ([3]; replicate 5) of the same molecule?
Answer: The value was -0.1767.

Question: What about the “INS-1 cAMP (100 nM)” value [4] of the same molecule?
Answer: The value was -0.04979.

Question: What about the “AD293 Surface” value ([5]; column repeated, paired with cAMP 100 nM) of the same molecule?
Answer: Its value is 0.3804.

Question: And the “AD293 Surface” value ([5]; paired with cAMP 100 pM)?
Answer: Its value is 0.3804.

Question: What about the “Surface SNAP-GIPR expression” value ([5]; replicate 1) of the same molecule?
Answer: The value was 0.4051.

Question: And the “Surface SNAP-GIPR expression” value ([5]; replicate 2)?
Answer: Its value is 0.3209.

Question: What about the “Surface SNAP-GIPR expression” value ([5]; replicate 3) of the same molecule?
Answer: Its value is 0.5539.

Question: And the “Surface SNAP-GIPR expression” value ([5]; replicate 4)?
Answer: The value was 0.3598.

Question: And the “Surface SNAP-GIPR expression” value ([5]; replicate 5)?
Answer: The value was 0.3596.

Question: And the “Surface SNAP-GIPR expression” value ([5]; replicate 6)?
Answer: The value was 0.3496.

Question: And the “Surface SNAP-GIPR expression” value ([5]; replicate 7)?
Answer: Its value is 0.6994.

Question: What about the “Surface SNAP-GIPR expression” value ([5]; replicate 8) of the same molecule?
Answer: Its value is 0.559.

Question: And the “Surface SNAP-GIPR expression” value ([5]; replicate 9)?
Answer: Its value is 0.4541.

Question: And the “Surface SNAP-GIPR expression” value ([5]; replicate 10)?
Answer: The value was 0.3587.

Question: What about the “Surface SNAP-GIPR expression” value ([5]; replicate 11) of the same molecule?
Answer: Its value is 0.3825.

Question: What about the “Surface SNAP-GIPR expression” value ([5]; replicate 12) of the same molecule?
Answer: The value was 0.3815.

Question: And the “Surface SNAP-GIPR expression” value ([5]; replicate 13)?
Answer: Its value is 0.0633.

Question: And the “Surface SNAP-GIPR expression” value ([5]; replicate 14)?
Answer: The value was 0.2489.

Question: And the “Surface SNAP-GIPR expression” value ([5]; replicate 15)?
Answer: Its value is 0.3401.

Question: What about the “Surface SNAP-GIPR expression” value ([5]; replicate 16) of the same molecule?
Answer: Its value is 0.3428.

Question: And the “Surface SNAP-GIPR expression” value ([5]; replicate 17)?
Answer: The value was 0.3498.

Question: And the “Surface SNAP-GIPR expression” value ([5]; replicate 18)?
Answer: Its value is 0.3062.

Question: And the “Surface SNAP-GIPR expression” value ([5]; replicate 19)?
Answer: Its value is 0.4941.

Question: And the “Surface SNAP-GIPR expression” value ([5]; replicate 20)?
Answer: Its value is 0.4147.

Question: And the “Surface SNAP-GIPR expression” value ([5]; replicate 21)?
Answer: The value was 0.448.

Question: And the “Surface SNAP-GIPR expression” value ([5]; replicate 22)?
Answer: Its value is 0.3466.

Question: What about the “Surface SNAP-GIPR expression” value ([5]; replicate 23) of the same molecule?
Answer: Its value is 0.3211.

Question: What about the “Surface SNAP-GIPR expression” value ([5]; replicate 24) of the same molecule?
Answer: Its value is 0.3185.

Question: What about the “Surface SNAP-GIPR expression” value ([5]; replicate 25) of the same molecule?
Answer: Its value is 0.3831.

Question: What about the “Surface SNAP-GIPR expression” value ([5]; replicate 26) of the same molecule?
Answer: Its value is 0.4894.

Question: And the “Surface SNAP-GIPR expression” value ([5]; replicate 27)?
Answer: Its value is 0.2936.

Question: And the “Surface SNAP-GIPR expression” value ([5]; replicate 28)?
Answer: The value was 0.2968.

Question: What about the “Surface SNAP-GIPR expression” value ([5]; replicate 29) of the same molecule?
Answer: The value was 0.3488.

Question: What about the “Surface SNAP-GIPR expression” value ([5]; replicate 30) of the same molecule?
Answer: Its value is 0.3484.

Question: And the “Surface SNAP-GIPR expression” value ([5]; replicate 31)?
Answer: Its value is 0.4442.

Question: What about the “Surface SNAP-GIPR expression” value ([5]; replicate 32) of the same molecule?
Answer: Its value is 0.3528.

Question: What about the “Surface SNAP-GIPR expression” value ([5]; replicate 33) of the same molecule?
Answer: The value was 0.3442.

Question: And the “Surface SNAP-GIPR expression” value ([5]; replicate 34)?
Answer: The value was 0.4073.

Question: And the “Surface SNAP-GIPR expression” value ([5]; replicate 35)?
Answer: The value was 0.5179.

Question: And the “Surface SNAP-GIPR expression” value ([5]; replicate 36)?
Answer: The value was 0.2819.

Question: What about the “Surface SNAP-GIPR expression” value ([5]; replicate 37) of the same molecule?
Answer: Its value is 0.3273.

Question: And the “Surface SNAP-GIPR expression” value ([5]; replicate 38)?
Answer: The value was 0.3893.

Question: What about the “Surface SNAP-GIPR expression” value ([5]; replicate 39) of the same molecule?
Answer: The value was 0.3839.

Question: What about the “Surface SNAP-GIPR expression” value ([5]; replicate 40) of the same molecule?
Answer: The value was 0.3508.

Question: What about the “Surface SNAP-GIPR expression” value ([5]; replicate 41) of the same molecule?
Answer: The value was 0.4598.

Question: And the “Glucagon secretion, ratio G0.5 + GIP / G0.5” value ([6]; replicate 1)?
Answer: The value was 0.4628.

Question: And the “Glucagon secretion, ratio G0.5 + GIP / G0.5” value ([6]; replicate 2)?
Answer: Its value is 1.4505.

Question: What about the “Glucagon secretion, ratio G0.5 + GIP / G0.5” value ([6]; replicate 3) of the same molecule?
Answer: The value was 0.8994.

Question: And the “Glucagon secretion, ratio G0.5 + GIP / G0.5” value ([6]; replicate 4)?
Answer: The value was 1.147.
